Measured values reported in patent US20240385190A1 (EISAI R AND D MANAGEMENT, published 2024).
Numbering of substitutions follows the chain as printed.

Columns and labels:
Test in all cases: ELISA
Rabbit = molecular target: T1, Rabbit
T1 construct: also called rabbit EphA4 extracellular domain-SEAP-His protein
Experimental: (§1) For the anti-human EphA4 monoclonal antibodies produced in Example 1, evaluation of binding activity to various EphA4 was performed according to the following steps. Mouse anti-6-His antibodies (R&D) were coated on the wells of a 96-well plate (Thermo […]). After incubating at room temperature for 1 hour, the wells were blocked at 4° C. overnight with 1% Block Ace (KAC). After washing three times with 0.02% Tween 20/PBS, the wells were seeded with mouse EphA4 extracellular domain-SEAP-His protein, rat EphA4 extracellular domain-SEAP-His protein, rabbit EphA4 extracellular domain-SEAP-His protein, monkey EphA4 extracellular domain-SEAP-His protein, human EphA4 extracellular domain-SEAP-His protein, or SEAP-His protein (final concentration 1 nM), and this was incubated at room temperature for 1 hour. After washing three times, anti-human EphA4 rabbit monoclonal antibody (10 pg/mL) was added, and this was incubated at room temperature for about 1 hour. After washing three times, horseradish peroxidase labeled goat anti-rabbit IgG polyclonal antibody (abcam) was added, and this was incubated at room temperature for 1 hour. After washing three times, TMBZ (3,3′,5,5′-tetramethylbenzidine, KPL) solution was added to the wells, and this was incubated for 3 minutes at room temperature. Equal amounts of quenching solution (2 N H₂SO₄, FUJIFILM Wako) were added to the wells, and absorbance at 450 nm and 650 nm were read with a microplate reader (Thermo […]).

[1] = molecular target: human EphA4 extracellular domain-SEAP-His protein (human)
Sequence of human EphA4 extracellular domain-SEAP-His protein (human) (chain, as listed by the source limits assumed): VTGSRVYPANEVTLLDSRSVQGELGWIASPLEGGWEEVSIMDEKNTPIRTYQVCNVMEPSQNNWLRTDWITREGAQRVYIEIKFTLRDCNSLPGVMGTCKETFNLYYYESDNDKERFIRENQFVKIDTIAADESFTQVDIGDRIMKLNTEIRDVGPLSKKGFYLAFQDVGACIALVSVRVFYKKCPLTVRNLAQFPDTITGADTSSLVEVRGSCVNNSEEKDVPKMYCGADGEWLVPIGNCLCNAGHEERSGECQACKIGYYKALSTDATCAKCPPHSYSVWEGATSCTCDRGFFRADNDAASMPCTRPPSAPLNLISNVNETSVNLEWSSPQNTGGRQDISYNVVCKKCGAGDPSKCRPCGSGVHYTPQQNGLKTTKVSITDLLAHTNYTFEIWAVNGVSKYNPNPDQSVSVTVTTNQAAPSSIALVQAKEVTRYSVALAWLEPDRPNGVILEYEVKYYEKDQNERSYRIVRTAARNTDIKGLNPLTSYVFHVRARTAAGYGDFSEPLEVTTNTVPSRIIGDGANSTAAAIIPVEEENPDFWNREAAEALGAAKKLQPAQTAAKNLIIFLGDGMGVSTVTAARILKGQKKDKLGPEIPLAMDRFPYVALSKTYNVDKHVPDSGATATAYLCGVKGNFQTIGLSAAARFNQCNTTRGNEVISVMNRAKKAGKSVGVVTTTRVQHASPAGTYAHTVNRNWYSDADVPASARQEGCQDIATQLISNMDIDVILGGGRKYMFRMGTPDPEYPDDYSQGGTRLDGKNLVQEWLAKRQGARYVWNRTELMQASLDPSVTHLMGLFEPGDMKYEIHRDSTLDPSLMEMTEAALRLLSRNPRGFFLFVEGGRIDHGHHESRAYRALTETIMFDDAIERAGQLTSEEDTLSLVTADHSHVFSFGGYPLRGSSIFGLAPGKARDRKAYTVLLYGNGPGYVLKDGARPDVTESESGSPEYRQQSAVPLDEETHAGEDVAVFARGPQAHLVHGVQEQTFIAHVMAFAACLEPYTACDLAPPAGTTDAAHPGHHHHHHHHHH
Experimental: as §1

[2] = molecular target: T2, monkey EphA4 extracellular domain-SEAP-His protein (monkey)
T2 construct: the fusion as a whole has none; not shown: SEAP-His part
T2 sequence (chain, as listed by the source): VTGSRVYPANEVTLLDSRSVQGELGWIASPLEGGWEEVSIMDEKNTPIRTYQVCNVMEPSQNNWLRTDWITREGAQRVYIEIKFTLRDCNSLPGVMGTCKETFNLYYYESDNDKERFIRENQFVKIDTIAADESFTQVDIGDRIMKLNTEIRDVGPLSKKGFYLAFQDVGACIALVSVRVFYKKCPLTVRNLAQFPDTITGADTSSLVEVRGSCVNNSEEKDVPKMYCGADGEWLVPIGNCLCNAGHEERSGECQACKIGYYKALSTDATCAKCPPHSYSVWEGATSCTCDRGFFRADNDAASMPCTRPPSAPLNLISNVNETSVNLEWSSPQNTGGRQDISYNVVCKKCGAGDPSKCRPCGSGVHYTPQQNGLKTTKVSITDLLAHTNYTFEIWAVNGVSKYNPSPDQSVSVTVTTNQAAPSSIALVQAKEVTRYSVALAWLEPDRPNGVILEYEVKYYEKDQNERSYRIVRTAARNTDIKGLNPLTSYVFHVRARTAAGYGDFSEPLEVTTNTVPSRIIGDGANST
Experimental: as §1

SEAP = molecular target: T3, SEAP
T3 construct: negative control antigen; also called SEAP-His protein
Experimental: as §1

Rat = molecular target: T4, Rat
T4 construct: also called rat EphA4 extracellular domain-SEAP-His protein
Experimental: as §1

Mouse = molecular target: T5, Mouse
T5 construct: also called mouse EphA4 extracellular domain-SEAP-His protein
Experimental: as §1

MBP = molecular target: MBP
Experimental: (§2) For the anti-human EphA4 monoclonal antibodies produced in Example 1, evaluation of binding activity to various EphA4 was performed according to the following steps. Mouse anti-6-His antibodies (R&D) were coated on the wells of a 96-well plate (Thermo […]). After incubating at room temperature for 1 hour, the wells were blocked at room temperature for 1 hour with 1% Block Ace (KAC). After washing three times with 0.02% Tween 20/PBS, the wells were seeded with human EphA4 extracellular domain-MBP-His protein, human EphA4 ligand binding domain-MBP-His protein, human EphA4 fibronectin III-type domain 1-MBP-His protein, human EphA4 fibronectin III-type domain 2-MBP-His protein, or MBP-His protein (final concentration 1 nM), and this was incubated at room temperature for 1 hour. After washing three times, anti-human EphA4 rabbit monoclonal antibody (10 pg/mL) was added, and this was incubated at room temperature for 1 hour. After washing three times, horseradish peroxidase labeled goat anti-rabbit IgG polyclonal antibody (abcam) was added, and this was incubated at room temperature for 1 hour. After washing three times, TMBZ (3,3′,5,5′-tetramethylbenzidine, KPL) solution was added to the wells, and this was incubated for four and a half minutes at room temperature. Equal amounts of quenching solution (2 N H₂SO₄, FUJIFILM Wako) were added to the wells, and absorbance at 450 nm and 650 nm were read with a microplate reader (Thermo […]).

[3] = molecular target: human EphA4 ligand binding domain-MBP-His protein (human, UniProt P54764 20-209; P0AEX9 29-392 = MBP)
Experimental: as §2

[4] = molecular target: T6, human EphA4 extracellular domain-MBP-His protein (human)
T6 construct: also called human EphA4 extracellular domain (ECD); Human EphA4 extracellular domain-MBP-His 10
Experimental: as §2

FN1 = molecular target: FN1
Experimental: as §2

FN2 = molecular target: FN2
Experimental: as §2

B1: KPEP11_12 (antibody, V domains shown)
VH: QSLEESGGRLVTPGTPLTLTCTVSGFSLSSYHMSWVRQAPGKGLEWIGIIYRSGNTYYANWAKGRFTISKTSTTVDLKITSPTTEDTATYFCARESSTFYGMDLWGPGTLVTVSS
VL: YVMMTQTPSSVSAAVGGTVTINCQASQSVYGNNELAWYQQKPGQRPKLLIYRASTLASGVPSRFKGSGSGTEFTLTISDLECADAATYYCLGYKSDDYTFGGGTKVEIKG
notes: Rabbit IgG; also called anti-human EphA4 rabbit monoclonal antibody KPEP11_12
Q: For B1, which absorbance (Rabbit) is on record?
A: 0.055

Q: What about the absorbance [1] of the same binder?
A: 1.22

Q: And the absorbance [2]?
A: 1.19

Q: And the absorbance (SEAP)?
A: 0.067

Q: What about the absorbance (Rat) of the same binder?
A: 0.054

Q: And the absorbance (Mouse)?
A: 0.059

Q: What about the absorbance (MBP) of the same binder?
A: 0.302

Q: And the absorbance [3]?
A: 0.283

Q: And the absorbance [4]?
A: 1.29

Q: And the absorbance (FN1)?
A: 0.255

B2: KPEP11_01 (antibody, V domains shown)
VH: B1 VH with L3V, Y58S
VL: B1 VL
notes: also called anti-human EphA4 rabbit monoclonal antibody KPEP11_01
Q: With B2 as the binder, how does the absorbance (Rabbit) read?
A: 0.045

Q: And the absorbance [1]?
A: 1.21

Q: What about the absorbance [2] of the same binder?
A: 1.18

Q: And the absorbance (SEAP)?
A: 0.052

Q: What about the absorbance (Rat) of the same binder?
A: 0.042

Q: What about the absorbance (Mouse) of the same binder?
A: 0.049

Q: And the absorbance (MBP)?
A: 0.231

Q: What about the absorbance [3] of the same binder?
A: 0.236

Q: And the absorbance (FN2)?
A: 0.235

Q: And the absorbance (FN1)?
A: 0.228

B3: KPEP11_09 (antibody, V domains shown)
VH: B1 VH with L3V, Y58S
VL: B1 VL
notes: Rabbit IgG; also called anti-human EphA4 rabbit monoclonal antibody KPEP11_09
Q: Which results are given for B3?
A: absorbance [1]: 1.14; absorbance [2]: 1.15; absorbance (SEAP): 0.07; absorbance (Rat): 0.064; absorbance (Mouse): 0.079; absorbance (MBP): 0.291; absorbance (FN2): 0.242; absorbance [4]: 1.24; absorbance (FN1): 0.24

B4: KPEP11_02 (antibody, V domains shown)
VH: QSLEESGGRLVTPGGSLTLTCTVSGIDLSSYAMSWVRQAPEKGLEWIGFINNYGTYYASWAKGRFTISKTSTTVDLKVTSLTTEDTATYFCVRGGRSPNYDIVSGDIWGPGTLVTVSS
VL: YVMMTQTPSSVSEPVGGTVTIKCQASQNIYNSLAWYQQKPGQRPKLLIADASELASGVPQRFSGSGSGTQFTLTISDLECADAATYYCQSSSAGDSYVGGFGGGTEVVVKG
notes: Rabbit IgG; also called anti-human EphA4 rabbit monoclonal antibody KPEP11_02
Q: What does the source list for B4?
A: absorbance (Rabbit): 0.04; absorbance [1]: 1.25; absorbance [2]: 1.2; absorbance (SEAP): 0.071; absorbance (Mouse): 0.048; absorbance [3]: 1.32; absorbance (FN2): 0.227; absorbance [4]: 1.35; absorbance (FN1): 0.213

B5: KPEP11_05 (antibody, V domains shown)
VH: B4 VH
VL: B4 VL
notes: Rabbit IgG; also called anti-human EphA4 rabbit monoclonal antibody KPEP11_05
Q: Which absorbance (Rabbit) does the source give for B5 here?
A: 0.035

Q: And the absorbance [2]?
A: 1.24

Q: And the absorbance (SEAP)?
A: 0.043

Q: And the absorbance (Rat)?
A: 0.043

Q: And the absorbance (Mouse)?
A: 0.045

Q: And the absorbance (MBP)?
A: 0.239

Q: And the absorbance [3]?
A: 1.32

Q: What about the absorbance (FN2) of the same binder?
A: 0.225

Q: And the absorbance [4]?
A: 1.43

Q: What about the absorbance (FN1) of the same binder?
A: 0.213

B6: KPEP11_07 (antibody, V domains shown)
VH: QEQLKESGGRLVTPGGSLTLTCTVSGIDLSSYAMSWVRQAPEKGLEWIGFINMYGTYYASWAKGRFTISRTSTTVDLKVTSLTTEDTATYFCVRGGRSPDYDIVSGDIWGPGTLVTVSS
VL: B4 VL
notes: Rabbit IgG; also called anti-human EphA4 rabbit monoclonal antibody KPEP11_07
Q: How did the absorbance [1] turn out when B6 was run?
A: 1.22

Q: What about the absorbance [2] of the same binder?
A: 1.18

Q: And the absorbance (SEAP)?
A: 0.05

Q: And the absorbance (Rat)?
A: 0.044

Q: And the absorbance (Mouse)?
A: 0.045

Q: What about the absorbance (MBP) of the same binder?
A: 0.24

Q: And the absorbance [3]?
A: 1.39

Q: And the absorbance (FN2)?
A: 0.22

Q: What about the absorbance [4] of the same binder?
A: 1.42

Q: What about the absorbance (FN1) of the same binder?
A: 0.226
